Test results published in PMC11961569.

Molecular target: EfpA^EM (BRIL-P171R EfpA, Mycobacterium tuberculosis efflux protein A) (not stated | Mycobacterium tuberculosis) (UniProt P9WJY4)
Assay: cryo-EM structure; EfpA-EM mixed with anti-BRIL Fab and anti-Fab elbow Nb (1:1.5:2), separated on Superose 6 in 50 mM Tris-Cl pH 7.5, 300 mM NaCl, 0.02% GDN; apo sample gave antiparallel (dominant) and parallel dimers; samples with BRD-8000.3 or BRD-9327 gave antiparallel dimers

Substance: EfpA^EM (BRIL-P171R EfpA, Mycobacterium tuberculosis efflux protein A) (from UniProt P9WJY4 49-530)
- stoichiometry N: 2
